From the DeepSol protein solubility set

Assay: soluble on expression in E. coli; label from the status in PepcDB or PDB records

MPYSSSGVGHNGFDKADLHIHTKCSDGLFTPEEIVHKAIHVGLKAISITDHDTVTGIDQAKPLALELGLELIPGVEMSSAYKGYDIHILGYFFDYQQSELKGYLDHCRLLRTERAERMVQKLAKMGVKIEIEQIIMKAQNGSVGRPHIAAVLQDEGFVKSFSEAFSKYLGSHSPAYVKSIETHPEEVIRLINEAGGLSFLAHPAQNVPDEILRQLISFGLDGLEIIHPSHDTYRQNYYREIANEYFLLFSGGSDYHGPKDHEDNFGQVWIPYEWVTKMKSRLAPAVKE
soluble on expression in E. coli: not soluble

MYKLIAIDMDGTLLNDHHEVTEEVRDALHAAKAEGVKIVLCTGRPIGGVQRYLDELNLIEEGDYVIAYNGALVQNTHTNEVVSELSLGYDDLTSLYDLSLELKTPMHFFDSSNLYTPNRDISEFTVYESYVTQVPLHFRKIDEVPKDILIPKVMFIDKPENLSRVITSIPKDVREKYTMVRSAPFFYEILHSEASKGNAVRQLAQLLGIEQAEVMCIGDNGNDLTMIEWAGCGVAMANAIPEVLEAANFQTRSNNEHGVAHAIHELVLAKLEHHHHHH
soluble on expression in E. coli: soluble

MGSDKIHHHHHHMHHDLVDVLIIEDESELARLHAELVQKHPRLRLAGMAASLAQARQLLHATPPQLVLLDNYLPDGKGVTLMTDPALATSQCSVIFITAASDMETCSQAIRNGAFDYILKPVSWKRLSQSLERFIQFYDQQREWKIVDQQNVDSLYQLQAKNYRVDSGSKGIEEKTLALVQGLFSDREAHCFSVDEVVSAAGLSKTTARRYLEHGVETGFLEVEMLYGKIGHPRRLYRRAKVKS
soluble on expression in E. coli: not soluble

MDFLQGDRGDYKSALGSLQQVGYGSVIAKIRLAFNATGSVLRKRVLKEEQIEETVAKELEERRRTWDVNNGQFDKFSQWYIEYRKNLWHKDDYLPWLLYENEISCLKLTFDVCERPPRRINYGGRNRYTCEN
soluble on expression in E. coli: not soluble

MSLIRKREFDMPIKIPDTLPAFETLVHEGVRVMTETAAIRQDIRPLQIGLLNLMPNKIKTEIQMARLVGASPLQVELSLIRIGGHRAKNTPEEHLLSFYQTWEEVRHRKFDGFIITGAPIELLDYEDVTYWNEMQQIFEWTQTNVHSTLNVCWGAMAAIYHFHGVPKYELKEKAFGVYRHRNLSPSSIYLNGFSDDFQVPVSRWTEVRRADIEKHPELEILMESDEMGVCLAHEKAGNRLYMFNHVEYDSTSLADEYFRDVNSGVPIKLPHDYFPHNDPELAPLNRWRSHAHLFFGNWINEIYQTTPYDPQAIGKLAAEGHHHHHH
soluble on expression in E. coli: soluble

MGSDKIHHHHHHMDLPDSASRVFCGRILSMVNTDDVNAIILAQKNMLDRFEKTNEMLLNFNNLSSARLQQMSERFLHHTRTLVEMKRDLDSIFRRIRTLKGKLARQHPEAFSHIPEASFLEEEDEDPIPPSTTTTIATSEQSTGSCDTSPDTVSPSLSPGFEDLSHVQAGSPAINGRSQTDDEEMTGE
soluble on expression in E. coli: not soluble

MSRITQVHRILEQKHLDAIIILSDYNRRYLSGFTGTSGALIISKDKQYLITDFRYIDQATKQAPNYEIINRKSTIIGEIKELLHQENFENVGFEGHHVSYDTYLELNKSRISLISISNTVDKIRDVKDADEIALIQKAANIVDETYEYILTVVKAGMTEKELKAILESKMLELGADGPSFDTIVASGHRGALPHGVASDKIIEKGDMITLDFGAYYNGYCSDITRTFAIGEPDPKLKEIYQIVLESQMKAINEIRPGMTGAEADAISRNYLESKGYGKEFGHSLGHGIGLEIHEGPMLARTIQDKLQVNNCVTVEPGVYIEGLGGIRIEDDILITENGCQVFTKCTKDLIVLT
soluble on expression in E. coli: not soluble

MVDESKLQCYHKGCGLLFDPKENDNEACTYHPGGPYFHDAYKIWTCCDKKSTDFGTWMNYKGCTRGKHSNEKPVDIVKVAAVKEIRPEKEEDVIVWKGLNKSGKLDSKDATKRIEQNLNVEVTPGATAAIEKKLKEISEAAQSADIQIGAPCRNNGCSTEFDGSKNKENCQHHPGAAIFHEGMKYWSCCNKKTSNFGAFLEQVGCTSGEHKFRNNEIVSKFREDWFSSNGFVTINVYCRGALPETANIVSDGHTVRVSMKHGFGNASVDLDYDLWDEVIPEESRVVIGERKVEISLKQKHGTGWPRLKFDPELDAKNDEEA
soluble on expression in E. coli: not soluble

MSDNNTLRMAEMLDKQNSRQHDFMKLMMEMNNSARLSDQARDDRNAIRNENNLKEVFNKLIEAQKEESPIDISIKIRR
soluble on expression in E. coli: not soluble

MHISFIIPAFNEEQLIEPCLRSITDAVAANRSYGYTSEIIVVDNNSTDATAQLAKQAGAQVVFEPVNHIARARTAGAGAARGDWLVFMDADCLLNAGLVGDIFELIRQGRHIGAGSTLYMPGQPWWAEMLLRIWTFLSVQLGWAAGALIVCNAAAFREVGGFDLTLYAAEEIDLSQKLKKYGRKRKLKFAILNAHPLETSSRKTQLYSGWEIVGQFLRLVLSPLGTLRNKKKLPMWYDGRRLEHHHHHH
soluble on expression in E. coli: soluble

MKTLLTSATLLVTTLSTPLMAKEADIQSLVNAAQKEGQVYSVGMPGSWANWKDTWNDLNKLYGLKHQDTDMSSAQEIAKFAAEKNNATADIGDIGFAFARVAVKKGVTQAYKPTTWDSIPDWAKDKDGHWALAYTGTISFISNNKLVKNPPTSWDDLLEGNYKVSVGDVGVAAQANNAVLAAAFAKGGDESNLKPAIKFFAELAKQGRLSYTDPGLANLEKGEVEVALLWDFNALNYRDKLGRDRFSVNIPQDGSVISGYTTIINKFAKNPNSAKLAREYIFSDQGQINLAEGYARPIRSDVVLPQSIQDKLIPNDQYTNVQPVSDFKAWEKSARKLPRQWQENVLINQQ
soluble on expression in E. coli: not soluble

NVKHAFVDVQLAALPKMAYAAVDFVDYRFDNKHWKSLNEICPEVGLKPYADFAVLEVPLYLNNKLDYQVWENFIKPAIATYKALGDSTNLFASTSSSDLQNDTYFALGYPLLESNIDAIHFNQTGATLTSVPVKDRIKVKNQSFWTLN
soluble on expression in E. coli: not soluble

MGSDKIHHHHHHMETREAIFGRRSIRKYLDKPIEPEVLQDILEGAVMAPSAVNNQPWYFLAIKSQEQMEKLRGIFQEVSVKTKAVLEKRFPNNPEVVSETLGFLTSLGNARVCVLVFLLKPSKDYDIIAVESTSAAIQNLCLVAYDKGIGSCWMTAPLSTGFGDVLEKTFAPGKGKFIAAVTLGYPAVSPQAPKRKAGRYEII
soluble on expression in E. coli: not soluble

MGSDKIHHHHHHMAQNFHDNSQVSSEMSTAISRTAKPSSEFYSIFSEEEILGIICALEIRREIPLKYSYKGRGAKIWDDFYQKYIIPRWYRISNVEIELLKSNFKYFNDNIKSGEKINIVDVGAGNSYPVKDFVQRLNKLNKINKYVALDISEELLNLSKNNFKKWFPNVEFISSTIDIENNCVPKTLFQNNPDLEMDNTAKIFLHLGVTIGNHQNRDKVFKNFRESMGKNDFLVFTNEIGSNSKWDGNVRGGCKYHVEEIYGWVKNKVGIESEGCELVRKYDLKTDSIVANIRFNHDYTINFSRMGIDKKIEISEGEEITIWRHHKYEMPKLLQELERSGLQLIQYSTDKYKSHIMVICKISSN
soluble on expression in E. coli: not soluble

MSLGSERWITVQLVGEIMGTSFERGISQYPNVNDEVHLVTESDLEAIHGVEEQGQVVVGRLASADGIPVKLDLDKMVTRHSAVLGSTGSGKSTTVASLLRSIVSGADGSDAGFPSSRILMLDIHGEYSHALSDVAKVFRISPEANQTQLHIPFWALDPNELLCFLMGRLDDKPLTAILDKVYEYKHDQAVAHPRAGLNVTSMTSDTPVPFSLKKLWLELLEPEVKTWEDTARSQPALLEAGNADNVTPPQYKPHGAGATPPFINQIGVLGIRRPLDQLRSRLLDKKYDFLLHPGDWEPDLDGNVTKDLDALLEEWLGHDKPITILDLSGVPSLVLEQLIGAILRILYEALFWGRDRSEGHHHHHH
soluble on expression in E. coli: soluble

MTTYTTNDFSEIVFGRKSVRVYDETHKISHEEMLTMIQEATTAPSSVNMQPWRFVVVESEAGKEKLKPLIRFNTRQNETSSAMLLIFGDLNCHERGEEIYNQAYASGKMPKEVRDQQLAAIIPHYESLSREQMNDIVKIDASLAAMQFMLVARAHGYETNPIGGFEAEKLAETFGLDQERYVPVMILSVGKGMETGYESVRLAPEKITTFE
soluble on expression in E. coli: not soluble

GPGSMGTDKVMSEKLVLEKTKVKSLSDVQRLDMWGEGLTDISLVAKLPRLEVLALAANNVSSLKALQGCELLQELYLRKNKVANLREVTALRVLPTLSVLWLRDNPCAQHPYYREFVLHCCPGLRQLDGVEVTADERKAAAKRLTTKTLDEILGRSACADAASSPRPKKSSGAGSSPAKATDVTPSSTPGGVSDSTATIEERNASSRSVLFTTVAAQRAMLLSIVSLLSELTVESLELLQREVQERVEKQKEKLTKYVQENSQ
soluble on expression in E. coli: soluble

MGSDKIHHHHHHMIRDARVLRAGFVPREVEHRDAEVNHLSSVLEPITNGEPADTAIVTGPSGAGKTCISQFVTERLREEVLDVETTYVNCWRNYTRFRTLYQILDDLGATIDIHRQSTPHDELVDRLQQHDGPRTVVILDEVDQLEDPSVIYDLHSLPQFAIICIANKEEELFSRVDDRLVSRLRSSEHVRMDKYHDEQLYDILSARAKWGLDEDVITDDQLYRIADAAAGDARLAIGILRTAAGKADRENHERITDDILLNAAEDARAQIKQKSLDSLTPHQRVVYDIVREHGPIGPSEIHERYSEDVDDPRTKRTIRTYLSKMEQYNLLEAEGTSRDREYSLVDSAAASPMQ
soluble on expression in E. coli: not soluble

PNIADKGSVFYHFSATSFDSVDGTRHYRVWTAVPNTTAPASGYPILYMLDGNAVMDRLDDELLKQLSEKTPPVIVAVGYQTNLPFDLNSRAYDYTPAAESRKTDLHSGRFSRKSGGSNNFRQLLETRIAPKVEQGLNIDRQRRGLWGHSYGGLFVLDSWLSSSYFRSYYSASPSLGRGYDALLSRVTAVEPLQFCTKHLAIMEGSATQGDNRETHAVGVLSKIHTTLTILKDKGVNAVFWDFPNLGHGPMFNASFRQALLDISGENANYTAGCHELSH
soluble on expression in E. coli: soluble

MPDTSPDLPAMSPLAVYRQAVEQRGFAPDEAQRRAAEALERCFQALHEAHRHGAIQGVYLWGPVGRGKTWLMDHFYQCLRVPARRQHFHHFMQWVHQRQFELTGTADPLRALARELARDVRVLCFDELFVSDIGDAILLGSLLRIMFEEGVVLVATSNQPPEQLYADGFNRERFLPAIEAIQRHMAVVAVDGGQDHRLHPGRAEQRYWVVEAGQASGFAELFARLSAGEAASTQPIELGHRPLAVHRHSESVLWCSYAQLCEAPLSALDFIGLCDRYRAILMDDLPCLSASQREGRIARGTEDGAQLVEAGDRELPQLSVHDDGVRRFIALVDECYDRKVPLYLEARVPLEALYTEGYLAFAFRRTLSRLREMQLARFGSDSAG
soluble on expression in E. coli: not soluble

MRMSKMARKDPTIEFCQLGLDTFETKYITMFGMLVSCSFDKPAFISFVFSDFTKNDIVQNYLYDRYLIDYENKLELNEGFKAIMYKNQFETFDSKLRKIFNNGLRDLQNGRDENLSQYGIVCKMNIKVKMYNGKLNAIVRECEPVPHSQISSIASPSQCEHLRLFYQRAFKRIGESAISRYFEEYRRFFPIHRNGSHLA
soluble on expression in E. coli: soluble

ARQENPCGPCSERRKHLFVQDPQTCKCSCKNTDSRCKARQLELNERTCRCDKPRR
soluble on expression in E. coli: soluble

MNVLLMAYGTPYAPEEVEPYYTDIRRGRRPSEELLKELAERYEAIGKSPLNEITLAQAVRLQALLNLEAPPYPKRLLSPFPPRAPHGPARVYVGTKHWHPSIGEAVAAMHEDGVRRAVAIVAAPHYSLRSVAEYREKVDSALKALPEPIDFVWVESYEAHPGLIAAYARRLEEVIWRLKNPGKAAYVFTAHSIPLSAVEKGDPYPRQVEKTAELIAKKLALPRFHVAYQSAGRTPEPWLGPDINELLRTLKEEGYEEVAVQAVGFPADHLEVFYDLDLEAQATARELGLRLLRARSLNADLDYIQVLKDLVEAAWPR
soluble on expression in E. coli: soluble

MATNLKSIAKLQKPIQYDKVIEVDRIFADPAFIEQHRQRILASFKDAKESALYHELTHIVIKDNLFSAAMNEIVSYFEFQINPEELKNVVEGLKRDVVKDADEKTIQSIAEKIIKKALVFNFLQKEWKVEVSDDIVKRVISLYYEKTNQNVREYLDDKQKFEGIRTALIEERMVLETINHFKFHFNLTGQLPS
soluble on expression in E. coli: soluble
